Measurements as given in IntAct's records for PubMed 30487161.

Target: egln1_human EGLN1 (UniProt Q9GZT9)
Sequence (Q9GZT9 whole entry, looked up): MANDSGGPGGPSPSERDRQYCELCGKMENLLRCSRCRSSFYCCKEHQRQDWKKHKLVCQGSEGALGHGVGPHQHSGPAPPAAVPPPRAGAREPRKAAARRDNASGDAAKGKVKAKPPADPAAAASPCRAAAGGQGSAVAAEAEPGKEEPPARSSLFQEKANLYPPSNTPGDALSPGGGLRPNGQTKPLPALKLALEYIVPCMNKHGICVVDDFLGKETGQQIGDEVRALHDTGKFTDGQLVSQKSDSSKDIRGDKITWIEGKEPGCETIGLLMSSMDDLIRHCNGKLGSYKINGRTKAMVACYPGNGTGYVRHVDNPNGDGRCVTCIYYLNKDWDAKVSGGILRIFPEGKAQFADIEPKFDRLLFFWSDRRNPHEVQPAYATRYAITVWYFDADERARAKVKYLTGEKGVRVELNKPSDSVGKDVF

Chain of Endothelial PAS domain-containing protein 1 (Homo sapiens), Q99814 G724W (Q99814 whole entry G724W, the tested form may be a part): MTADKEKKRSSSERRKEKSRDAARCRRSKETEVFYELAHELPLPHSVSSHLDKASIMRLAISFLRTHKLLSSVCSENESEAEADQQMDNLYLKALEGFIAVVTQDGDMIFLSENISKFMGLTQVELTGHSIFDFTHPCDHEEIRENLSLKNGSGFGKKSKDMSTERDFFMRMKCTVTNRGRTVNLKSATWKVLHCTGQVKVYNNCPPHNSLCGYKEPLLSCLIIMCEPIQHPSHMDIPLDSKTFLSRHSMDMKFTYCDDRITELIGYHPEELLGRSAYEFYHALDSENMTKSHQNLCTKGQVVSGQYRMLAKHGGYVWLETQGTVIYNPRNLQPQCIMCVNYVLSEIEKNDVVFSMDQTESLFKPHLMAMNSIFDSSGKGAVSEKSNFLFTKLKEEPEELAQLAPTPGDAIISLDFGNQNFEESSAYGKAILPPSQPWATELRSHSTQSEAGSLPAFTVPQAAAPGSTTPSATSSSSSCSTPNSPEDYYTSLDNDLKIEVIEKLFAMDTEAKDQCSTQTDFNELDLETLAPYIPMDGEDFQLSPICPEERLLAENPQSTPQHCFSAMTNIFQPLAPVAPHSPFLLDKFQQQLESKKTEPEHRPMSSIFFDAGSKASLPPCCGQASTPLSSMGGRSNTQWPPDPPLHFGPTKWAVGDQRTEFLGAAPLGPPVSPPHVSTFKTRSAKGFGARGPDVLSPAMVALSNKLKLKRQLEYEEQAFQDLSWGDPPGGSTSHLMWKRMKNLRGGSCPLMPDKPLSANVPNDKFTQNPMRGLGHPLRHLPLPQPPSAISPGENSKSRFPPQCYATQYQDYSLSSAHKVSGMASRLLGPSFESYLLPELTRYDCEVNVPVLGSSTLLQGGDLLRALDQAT
Chain of Endothelial PAS domain-containing protein 1 (Homo sapiens), Q99814 N203H (Q99814 whole entry N203H, the tested form may be a part): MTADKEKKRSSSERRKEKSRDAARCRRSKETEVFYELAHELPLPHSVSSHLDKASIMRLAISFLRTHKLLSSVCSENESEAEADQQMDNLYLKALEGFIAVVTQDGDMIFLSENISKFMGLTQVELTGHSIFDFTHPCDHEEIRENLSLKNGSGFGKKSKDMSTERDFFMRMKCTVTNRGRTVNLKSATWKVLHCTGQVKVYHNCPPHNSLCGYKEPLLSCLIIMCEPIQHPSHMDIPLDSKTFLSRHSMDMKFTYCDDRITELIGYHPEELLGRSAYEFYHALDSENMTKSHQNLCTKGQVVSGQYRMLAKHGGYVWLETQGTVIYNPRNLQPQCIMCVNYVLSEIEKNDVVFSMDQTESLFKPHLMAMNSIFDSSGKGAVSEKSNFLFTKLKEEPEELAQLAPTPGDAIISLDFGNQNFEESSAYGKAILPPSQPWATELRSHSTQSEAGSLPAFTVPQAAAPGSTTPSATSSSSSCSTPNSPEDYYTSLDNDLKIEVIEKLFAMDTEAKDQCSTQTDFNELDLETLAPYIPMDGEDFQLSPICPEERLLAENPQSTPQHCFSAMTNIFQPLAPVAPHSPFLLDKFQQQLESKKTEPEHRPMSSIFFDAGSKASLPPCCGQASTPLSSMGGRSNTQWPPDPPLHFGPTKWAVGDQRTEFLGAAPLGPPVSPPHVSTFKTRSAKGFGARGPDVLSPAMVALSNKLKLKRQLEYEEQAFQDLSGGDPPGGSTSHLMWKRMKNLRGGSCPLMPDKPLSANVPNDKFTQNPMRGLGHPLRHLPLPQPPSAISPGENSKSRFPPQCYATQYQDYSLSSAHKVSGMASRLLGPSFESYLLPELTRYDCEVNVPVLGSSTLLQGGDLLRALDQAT

Substance: Endothelial PAS domain-containing protein 1 (Homo sapiens), Q99814 G724W
- effect of a mutation on the interaction: with no effect

Substance: Endothelial PAS domain-containing protein 1 (Homo sapiens), Q99814 N203H
- effect of a mutation on the interaction: increasing interaction strength
